Columns and labels:
[1] = substrate: O=C(CCc1ccc(O)cc1)c1c(O)cc(O)cc1O; assay: purified protein; conditions: UDP-Glc as sugar donor; C-glucosylation
[2] = substrate: O=C1CC(O)(c2ccc(O)cc2)Oc2cc(O)cc(O)c21; assay: purified protein; conditions: UDP-Glc as sugar donor; C-glucosylation

B1: UGT708S6 (Dendrobium catenatum) (protein)
chain: MSSGDTNLPRVLLLPSSGMGHLVPFVRLASALSERCISVSLLAVRPTISAAESLLLSSLPSSLLLDFPIKPLDPSLFPPSSDPFFLQMEALRRSADLLPSFISTCSPPVSSLIIDISIASSFLPVAAAAKIPCFVLFTSSASMLALCSVFAFLSTPTAGADVNIAGGVLKIPTSSLPPPLRDPNHLFTTQFVENGRALAQANGILVNTFSALEPEVLVALNSGAVLPGLPPVIAIGPLPPVKKQPSLPSPALRWLDEQQEKSVMYVSFGSRTAMSKEQIRALGAGLENSGCRFFWVVKSAKVDREEVMEIEELLGEEYAKRVEERGLVVKEWVEQEVVLSHRAVAGFMSHCGWNSVTEAAAAGVRILAWPRMGDQRVNAAVVARSGLGIWPEKWAWEAEERVVAAEEIAVKVREMMRDERLAETAAQVQAEATAAVQEGGSLDQSCGYLLKKL
Km [1]: 545.831 µM
Vmax [1]: 9.48 µM/min
kcat [1]: 0.563 s⁻¹
kcat/Km [1]: 1030 M⁻¹ s⁻¹
Km [2]: 276.900 µM
Vmax [2]: 7.68 µM/min
kcat [2]: 0.907 s⁻¹
kcat/Km [2]: 3280 M⁻¹ s⁻¹

Source: article PMC11577821
